Data on eight molecules can be found in patent US20240376185A1 (SMIVET B V, published 2024).

Bounds are passed on as bounds.

In test [1] the target is dog IgG (chrompure dog IgG) (dog).
Test [2] has the same target. This is another data set of the same source.
Another test addresses T1, Cat albumin (cat, UniProt P49064 25-608).
T1 construct: also called Feline albumin; Feline Alb
The experiment in a line: BLI (Octet Red96), SDA on Ni-NTA sensor, albumin as analyte. (BLI is a label-free optical method that tracks binding on a fibre tip over time.)

A further test has as its target T2, Dog albumin (dog, UniProt P49822 25-608).
T2 construct: also called Canine albumin; Canine Alb
Described as above.

The next test has as its target T3, Horse albumin (horse, UniProt P35747 25-607).
T3 construct: also called Equine albumin; Equine Alb
The description is as above.

Test [3] deals with Tetanus neurotoxin (TeNT), authentic tetanus holotoxin (Clostridium tetani, UniProt P04958 2-1315). The test is described as follows: BLI (Octet Red96), biotinylated SDA on SA sensor, TeNT as analyte.
Test [4] has as its target T4, human serum albumin (human, UniProt P02768 25-609).
T4 construct: mature; also called human Alb
The experiment in a line: ELISA, E. coli supernatant. On the technique in general: ELISA stands for enzyme-linked immunosorbent assay.

Test [5] concerns the target T4, human serum albumin. The experiment in a line: ELISA, coated albumin, E. coli supernatant.
Test [6] has as its target T5, tetanus neurotoxin (TeNT), authentic tetanus holotoxin (Clostridium tetani, UniProt P04958 2-1315). The experiment in a line: GT1b-TeNT inhibition ELISA.
For test [7], the target named is T5, tetanus neurotoxin (TeNT), authentic …. The test is described as follows: bridging ELISA: coated TeNT, SDA, biotinylated TeNT, StrepPO (bivalent binding).
For test [8] the target is unchanged. The test is described as follows: ELISA: directly coated TeNT, anti-his6 PO.
For test [9] the target is unchanged. The experiment in a line: ELISA: directly coated TeNT, goat anti-llama Ig PO.
The target is the same in test [10]. The test is described as follows: ELISA: directly coated TeNT, anti-his6 PO. The source holds these as a separate data set.
For test [11] the target is unchanged. The test is described as follows: GT1b-TeNT inhibition ELISA. This is another data set of the same source.
Test [12] shares this target. The test is described as follows: ELISA: directly coated TeNT, goat anti-llama Ig PO. This is another data set of the same source.
Test [13] has the same target. The experiment in a line: bridging ELISA: coated TeNT, SDA, biotinylated TeNT, StrepPO (bivalent binding). This is another data set of the same source.
Test [14] has the same target. The experiment in a line: BLI (Octet Red96); avidity (bivalent for TeNT); format for this SDA not told.

B1: SVT06-SVT16-L123Q-GS2-SVG13M4-H6 (bispecific antibody)
chain: QVQLQESGGGSVQAGGSLRLSCTASELSYDDYTIAWFRRAAGEGRVEDGEGVASITKSYDRAYDNKINYGHSVKGRFTISRDNAKNTVYLQMTDLLPSDTAVYYCALDITPPGGVGASLTEGFLFDYWGQGTQVTVSSQVQLQESGGGSVQAGDSLRLSCAASGRTISNYAMGWFRQAPGKQREFVAAISRSDNTYYTDSVKGRFTISRDNAKNTLYLQMNSLKPEETAVYYCAADPNLMYESKWKYRALEAWGQGTQVTVSSGGGGSGGGSEVQLVESGGGLVQPGGSLRLSCEASGFTFDDYGMSWVRQAPGKGLEWVSSLTPNGGSTYYADSVKGRFTISRDNAKNTLYLQMNSLKPEDTALYYCAKNSYYGAMDYWGQGTQVTVSSHHHHHH
notes: also called pRL501
For the molecule B1, the maximal absorbance value in [1] is 0.78 A450. Further, in test [2], the “Effective SDA Concentration at A450 0.2” value was 134 ng/mL.

B2: SVA06L (VHH)
VHH: QVQLQESGGRLVQAEDSLRLSCAASGRTFVSYDMGWFRQAPGKEREFVAAINWRGYTTDYVDSVKGRFFISRDIAKSTVYLQMNNLKPEDTAVYYCAARQMSGSSRYSPPGRVGYDFWGQGTQVTVSS
With B2, in the test with Cat albumin, the Kd amounted to 1200 pM, the koff stood at 0.000878 s⁻¹ and the kon was found to be 729000 M⁻¹ s⁻¹. In the test with Dog albumin, the Kd was 3160 pM, the dissociation rate constant (koff) is 0.00224 s⁻¹ and the on-rate (kon) stood at 711000 M⁻¹ s⁻¹. Also, in the test with Horse albumin, the Kd turned out to be 13500 pM, the koff was found to be 0.00977 s⁻¹ and the kon was 726000 M⁻¹ s⁻¹.

B3: SVT06L (VHH)
VHH: QVQLQESGGGSVQAGGSLRLSCTASELSYDDYTIAWFRRAAGEGRVEDGEGVASITKSYDRAYDNKINYGHSVKGRFTISRDNAKNTVYLQMTDLLPSDTAVYYCALDITPPGGVGASLTEGFLFDYWGQGTQVTVSS
Regarding B3, in test [3], the Kd stood at 224 pM, the koff was 0.000113 s⁻¹ and the kon worked out at 503000 M⁻¹ s⁻¹.

B4: SVT15L (VHH)
VHH: QVQLQESGGGLVQTGGSLRLSCRASGRAFANYHFGWFRQAPGKDREFVASISWKGGSTYYANFALGRFTSSVDRAESSVYLQMSGLTPEDTATYYCAAHDGGDWNYHTGMDYWGKGILVTVSS
For the molecule B4, in test [3], the Kd amounted to 772 pM, the koff is 8.57e-05 s⁻¹ and the association rate constant (kon) turned out to be 111000 M⁻¹ s⁻¹.

B5: SVA04 (VHH, not shown: large carriers)
VHH: QVQLQQSGGGLVQAGGSLRLACAASGRTLSSYVMGWFRQAPGKEREFVAAISWSGGSTYYADSVKGRFTISRDNAKNTVYLQMNSLKPEDTAVYYCAATLRGSNRYYSGRVYDYWGQGTQVTVSS
As for B5, the binding result with human serum albumin [4] was “no binding”. Moreover, in the test with human serum albumin [5], the “absorbance at 450 nm” value was found to be 0.085 A450.

B6: SVG06L (VHH)
VHH: QVQLQESGGALVQPGGSLRLSCAASGFPFSAYDMTWVRQAPGQGLEWVSTIHKSGGITTYADSVKGRFTISRDNAKNTLYLQMNNLESEDTAVYYCAKALRAHNSDYVGRNALGSWGEGTLVTVSS
As to B6, the “minimal absorbance value (GT1b-TeNT inhibition)” value in test [6] was 0.8 A450. Further, the “Effective SDA Concentration at A450 0.3” value in test [7] was more than 1000 ng/mL. Moreover, the maximal absorbance value in test [8] came to 0.05 A450; in test [1] it was 0.56 A450; in [12] it was 0.07 A450; in test [13], 0.14 A450. Moreover, the “Effective SDA Concentration at A450 0.15” value in [9] and in test [10] was more than 1000 ng/mL each time. For the same molecule, in [10], the binding result is listed as “no binding (tested: 1000 ng/ml (A450 0.15 not reached))”. In addition, the “Effective SDA Concentration at A450 0.56” value in test [11] is more than 1000 ng/mL. Moreover, the “Effective SDA Concentration at A450 0.2” value in [2] came to 164 ng/mL.

B7: SVT06-GS3-SVT02-GS2-SVG06M4-H6 (bispecific antibody)
chain: QVQLQESGGGSVQAGGSLRLSCTASELSYDDYTIAWFRRAAGEGRVEDGEGVASITKSYDRAYDNKINYGHSVKGRFTISRDNAKNTVYLQMTDLLPSDTAVYYCALDITPPGGVGASLTEGFLFDYWGQGTQVTVSSGGGGSGGGGSGGGGSQVQLQQSGGGSVQAGGSLRLSCVGPQRTFSTYGMGWFRQAPGKEREFVAGINYKGDTTYYADSVKGRFTISRDNAKNTLYLQMDSLKPEDRAVYQCARKGGLGGDYRDAGQYRYWGQGTQVTVSSGGGGSGGGSEVQLVESGGALVQPGGSLRLSCAASGFPFSAYDMTWVRQAPGQGLEWVSTIHKSGGITTYADSVKGRFTISRDNAKNTLYLQMNNLESEDTAVYYCAKALRAHNSDYVGRNALGSWGQGTQVTVSSHHHHHH
As for B7, in [14], the Kd came out at 130 pM, the koff worked out at 4.27e-05 s⁻¹ and the kon was 329000 M⁻¹ s⁻¹.

B8: SVT16-L123Q-GS2-SVG13M4-H6 (bispecific antibody)
chain: QVQLQESGGGSVQAGDSLRLSCAASGRTISNYAMGWFRQAPGKQREFVAAISRSDNTYYTDSVKGRFTISRDNAKNTLYLQMNSLKPEETAVYYCAADPNLMYESKWKYRALEAWGQGTQVTVSSGGGGSGGGSEVQLVESGGGLVQPGGSLRLSCEASGFTFDDYGMSWVRQAPGKGLEWVSSLTPNGGSTYYADSVKGRFTISRDNAKNTLYLQMNSLKPEDTALYYCAKNSYYGAMDYWGQGTQVTVSSHHHHHH
With B8, the maximal absorbance value in test [1] turned out to be 0.69 A450. For the same molecule, the “Effective SDA Concentration at A450 0.2” value in [2] is 127 ng/mL.

By koff is commonly meant the first-order rate constant of dissociation. A lower koff goes with slow dissociation. In general, kon refers to the second-order rate constant of association.
